In a protein production outcome set (Wang et al. 2014) one finds protein production data, which are given here for 22 sequences.

The nature of this series: label from the status in PepcDB records.
Regarding “MGSSHHHHHHSSGRENLYFQGMTKNTRFSPEVRQRAVRMVLESQGEYDSQWATICSIAPKIGCTPETLRVWGRQHERDTGGGDGGLTTAERQRLKEPERENRELRRSNDILRQASAYFAKAEFDRLWKK”, the protein production result was “not failed”.
On to “MGSSSSFSSSSSKLLFRQLFENESSTFTYLLADVSHPDKPALLIDPVDKTVDRDLKLIDELGLKLIYAMNTHVHADHVTGTGLLKTKLPGVKSVISKASGSKADLFLEPGDKVSIGDIYLEVRATPGHTAGCVTYVTGEGADQPQPRMAFTGDAVLIRGCGRTDFQEGSSDQLYESVHSQIFTLPKDTLIYPAHDYKGFEVSTVGEEMQHNPRLTKDKETFKTIMSNLNLSYPKMIDVAVPANMVCGLQDVPSQAN”, for which the protein production result is “not failed”.
For “MGSSSYAVIPGAAPRSGRRSIRAVLVLALTAGVATVVPAAQADTSTPAAAPVAAKPYMGWSSWSMQSSKYPGLNPDGDYSYLTEANVLKQTDALASKLKKYGYDHVNIDAGWWMDKNWKTQFDQYGRQTPDPVRFPHGMKSVADHIHSKGLKAGIYLPVGLEKGAYGDGKTPISKAPGCTTADIVYSDLRTTNGWDNAYKIDFDKSCAQKYIDSQAQMFADWGYDFLKLDGVGPGSFKSGDNYNNVADVAAWQKAIAATGRPIHLELSWSLDIGHAADWKKYSNGWRIDTDIECYCNTLVTWENSVNDRWDDAPAWSSKAGPGGWNDLDAIDVGNGEMDGLTKAERQSYMTLWAINKSPLFTGDDLTKLDSYGVSLLTNKEVIAVDQNTSPVARPVTPVGDQQVWGTKNADGSYTVALFNLGDSPASVTAHWASFGFTGNASVRDLWNKTNLGTHKNKITEALPAHGSRLFTIKPGGGTLATTGYEAEAAANTLSGNASVGGCDACSGGKKVGNLYTGGKLRINDITVKKDGIYTVKVAYVSGDPRSVTVLSNSGNGTSLKFPSTGDWSTAETVSVQLALKAGSNTITFDSGSGYAPDIDRIVVPQSV” the value was “failed”.
For the sequence “MGTAMRSVAWGLAIALWPIAVWAENPEDLQRLLTTRQCERCDLQDSGLVLARLSGARLTGSNLQRANLSGADLSGADLRQTDLRGASLQRANLAGANLTGARLDGVDLREAWLTEAILTPQQLALAHIQGAQGLDVTALPFERYQAWGIEAIQAGRFERAISYFDLALQRNPKSASTYLSRAIAYQGLGRSEQAIADAQAAEQLYKSQQNPEGEKRSQELRTTIVAAQERVASSGSNGGNGGGSAALAVLTGIVQGVLPFLLGFPF”, the protein production entry is recorded as “failed”.
In the case of “MGTEERKARQKRYPPVLQDSGERPRRRFPYVSRSFVPSVFTVMNMVSGYVSIVMAGEGSFVIAGWLIFLAAFFDTIDGFVARLTNSSSEFGVELDSLSDLVSFGAAPAYLVYKFGLEHIGMPWGLLLSSLLMVGSGLRLARFNINLIDYHKDSFSGLPTPAQAMTVASFVLWMSVEPLFTELALQKVLMVLSVLLATLMVSKVNYDALPKPTLESFRSHPVQMILYVIAIFCVLVFQAKAFFVAMLLYILLGIVRSLTRTVQEWQL” it was “failed”; in that of “MGTKRIGILTSGGDCPGLNAVIRAVVKASALKGWEVYGIPYGTDGFVEVAHGKYQAEDLLLTKHGYALPGMLKGLDVLQFLSGSVLGSLSKGHPEQPAIAEAILKGYAILDLEALIVIGGDGSLDIIYDLAQKGNWHIIAIPKTIDNDVPFTDLAVGFSTAVDIVTQALYDLTFTAASHERIIIVQVMGRDAGHLTLHAGIAGGADIILIPEITPCLTSEIIRNCCYQLMNLRKSGRHFALIVISEGVHDQNNKKNKHIADYLAEEISETSQHLCDIKDPAFCDLISLDIRATTLGHLQRSGTPLSFDRLLATVFGIRAVELIEQEIYDQVVIWRSGKVEHADLKPIISIIKECHQENRCPFPVDRDGFMVKTAKSLGIYLGED”, “failed”; in that of “MGTLTCKDLNHKYRDTTMYKQQQIKQWFCGLSSITCQHISDWQKPHLGVLCAASAFLVLAAPVVNLPGSKLLAQTPISRDLETASFYQQGVTRYNRSDWQGAENAFRQALQREPNLAMARAYLGNIYLMQNRLDVAVQEYGEAIRLNPNLGETYYNLGLALQQQGKKEGAITAYRQALVIDPRRVEAYYNLGLVLYEQGLLQEAIAAYQDAVNLEPSKINAHHNLAIALQQTGKMEEAIVAYREVLKLDPKNAAAYSSLGSLMAMQGRPEEAIAAYTQAVRQDPKNALAYYNLGITLYNQGELQKASNAFKRAQEEYSQQGNLEQTEKTEQLMQQVAQKIEEQKLQQRQASTPKPTDNSTNNLLEKLTQLTAPKEQPANSGAVPVSDEQKQFPPIFPNTNSR”, “failed”.
For “MGTMNVVGLAIYLYAGFLSFIFGFISLYAFIKYSKLERKNKEIIYVYVDNLKNFSPYMFYSILLTFTIVFVIFALFICFVFNFDLYLGLTMLFSYFLIIYLFCFKKYRVEIYKDGFYGVFQN” the value was “failed”; for “MGTPNDQAVLQAIFNPDTPFGDIVGLDLGEEAEKEEREEDEVFPQAQLEQSKALELQGVMAAEAGDLSTALERFGQAICLLPERASAYNNRAQARRLQGDVAGALEDLERAVELSGGRGRAARQSFVQRGLLARLQGRDDDARRDFERAARLGSPFARRQLVLLNPYAALCNRMLADMMGQLRRPRDSR”, “failed”; for “MGTTVMVPIYTSTAAASPYSINLASMPPKTVLSKGDEEIAAIALPRQPKFYDLKTADGIPYSHIALLHSNNVLATTVQQTCIRYRDESTVCQFCAIEKSLDAGRTITRKLPEQLAEVTEAAVRLDGIEQVIMTTGTPNSGDRGAAYLTKCAAAIKARVNIPIQAQCEPPDDFIWFERMKAAGVDSLGMHLEAVDPDVRAKIMPGKAEVPVSYYYEAYEAAVKVFGWGQVSTYLLAGLGDSFETLVEASEKLVNMGVYPFVVPFVPISETPLANHPAPDSDFMFALYQRVGTIIKQSQISSVDMKAGCAKCGACSALSTFAKLEHHHHHH”, “failed”.
In the case of “MGVALAAMCLMSAQAQRRNEIQVPNLNGYTTLKCDFHMHSVFSDGLVWPTVRVDEAYREGLDAISLTEHIEYRPHKKDIIADHNRSYELSQKQAKKLGILLIRGSEITRSMPPGHFNAIFLNDSNPLEQKAYKDAFNEAKKQGAFIFWNHPGWARQQPDSTLWWPEHTQLYNDGCMHGIEVANGGLFMPEAIQWCLDKNLTMIGTSDIHQPIQTDYDFSKGEHRTMTFVFAKERSPEGIREALDNRRTAVYYRELVIGREEILRPFFEKCVDIKEVKRTEKEVTFSVMNATDLVLKLKKTAHDPSLVYFREMTLKPHTQHTISVKFDNGIKGGDCNFEVTNFIVAPDKGLDYTIKL” it was “not failed”; in that of “MGVVHHSVYAVYLEAARVDFLERAGLPYHRVEARGVFFPVVELGLTFRAPARFGEVVEVRTRLAELSSRALLFRYRVEREGVLLAEGFTRHLCQVGERAARIPEDIYRALSVLHLK”, “not failed”; in that of “MGYRRFLQLVAHEFFHLWNVKRIRPKALEQFDYEAENYTPSLWFSEGATSYYDLLLPLRAGLYGVDSFLEALGKDLSRYLTTPGRKVQPLAESSFDAWVKLYRRDAYSDNQQMSYYLKGQLVCWLLDLEIRNHQPDLEHHHHHH”, “not failed”.
For “MHEFSTVDGFAEINESLAEMIKYIANEPSVGLYYIQQHIRNAAPNVINLNNNVLEKSRETGLHTEDLEDSIAMVKSMKDCGSPIADEMIGDIKNSLAIMSSKQPRRGVILNSTSPWSRSSSITTRTRGSDNSQDNSESSNYFTSVFMTAKEKASNIKWPQLDFKEQKSEADPNVQSNELKEEEEEDSGKGEHIVETTKFEEFKAGKEASLKAWLGDMDGNVDVGGRVAERI”, the protein production entry is listed as “not failed”.
In the case of “MHELSISRHIAAPPGKVWDVLANRQEEWWCPRPWWITLIAQERRPGGRSAMVMHGPDGEEMPQEGIFLAWDEGHRFVTTDAVTADFLPAGPFMVGIWEVEPEGEGTRYTASARHWTEEAMREHAEMGFEAGWNACADQLQALCEAD” it was “failed”; in that of “MHEYSVVSSLIALCEEHAKKNQAHKIERVVVGIGERSAMDKSLFVSAFETFREESLVCKDAILDIVDEKVELECKDCSHVFKPNALDYGVCEKCHSKNVIITQGNEMRLLSLEMLAE”, “failed”; in that of “MHFSKEHINALETRTRAHFINSLSGFKSANLIGTQDRQGNTNLSIVSSVIHLGANPPLMGMIIRPHSVPRHTFENIMQTGLYTINHVNQSIYEQAHQTSARYDKDESEFEATGLTPEYLSDFCAPFVKESRLKYSVKLVEHQHLAINGTEFVIGEIVDVYVDDNAVQTDGFIDLQAIDTVAISGLDCYYTGDKLARLPYAKK”, “not failed”.
For “MHGIDLHTHSNISDGTLSPSCLVDAAIACGIHTLALTDHDTMDGLETAIQQAQGHDIQIISGAEISSQWSRPNTKKAYGVHIVALNMQNPEPLLDALVIQKNIRAERAQQICQILQQCTGQDIYTDVLLKVEGEPDRITRTHIAKALVEKEIVARPQQAFDRFLKEGKRAYVKFDGLNLADTIRIIHESEGFAILAHPTRYDLSSTNVRYLIELFAKMGGDAVELPPSVDPVSTRQMIDRIIQQFDLKVSIGSDFHG”, the protein production entry is listed as “failed”.
In the case of “MHGLLPALKRGFKRWIGWRRLGIAASVFIIAFAITTLVRTLKGIDTGVILTALTEIPRGNIGLAAICVFFAFCTLTFYDFFALRTIGKKHVPYRIAALSSFTSYSIGHNIGATVFTGGAIRFRIYSDYGLNAIDVAKICFLSGLTFWLGNIFVLSIGMAVHPDAASSMDQLPSSINRLIALGGLASIGAYLVWLCMGEKRRELGQKGWKVVLPSAPLTLVQILIGVVDLGFCATAMYLLIPATPPIDFLSLAVVFILATLLGFASHAPGSIGVFDAAMLVALPEFGREQLLATLLVFRLLYFVIPFGLAISIMGTRELWMNVVEPWQERRRLAEACAQANLPKQVAAMERERSLRQASKR” it was “failed”; in that of “MHIHILGICGTFMGGIAAIARNAGHTVTGCDANVYPPMSDQLRALGIELTEGWDAGQVRLEPDAFVVGNVVTRGNPLMEAILERGLPYTSGPQWLADNVLRDKWVLAVAGTHGKTTTSAMLAWILEDARLHPGFLVGGIPQNFGLSARLTDSPFFVIEADEYDTAFFDKRSKFVHYRPRTAILNNLEFDHADIFPDIQAIETQFHHLVRTIPGNGLIVANGREAALDRVLERGLWTPVERFGSIGGWTAGEADASGSFDVHFNSALQGRVRWELIGEHNRMNALAAIAAARHAGVPAAAAIDALSRFENVKRRMEIRGAVHGITVYDDFAHHPTAITTTVQGLRAKVGNARILAVLEPRSNTMKLGVMKDALPASLAGADEVYCYGANLGWDAAEALAPLGEKARVFDNLDKLVAQLVADGRPGDHVLMMSNGGFGGIHAKLLDALHHHYHEEIVLTPMHRYGGYA”, “failed”; in that of “MHIRRDQYMNEYVWETCEELDKKIADRVRLIRKRRSISQEKLSKISNVSLGSIKRFETTGQISLLSLTKIAVALNIADDLRNIFTEIPYNSIEEVINERR”, “not failed”.
For “MHKFIVIFVTLLISISVQTLAADLEIEEIELRETPQKMYDRLNQSISFPISFKNREQFERAAQEQGYSPDEFEHILQLLARLNLEPNVKTKVEFQDANSLIELLTSIAQTPLEQATVAMLKGRYIGRTEQKYQEAIAFYNQALSHINDSVDLGSMLLKHTIHEHLGLLHLVIRQDVPALMHFHTYRDIAYKLRNDYLIAAAESKLGHYYNKNQQLTKSLQHYSEAVRLSNRSNYPSMKTHLQLQLAKVYRDLKQWDEALKNAHEAAAGFKKLGNDTYLSSCMTVIAMVYGEQGDWNRAIDYYLNAQQLDAKRGNYIAQGLNFHNLGQAYSHLNDNVNALKYLLMANKIFTDKQSHHYLVYNELLIGEIAQSKQDWTLMMSHAEHALALASNLALLDEQKSALTQIALSAEKMQDQAKVISTQKRIIELNNTSKNTAKDPAVAASVLAEQQLKLELNMVQGKLNDAIESAKETNKLLALSGVILTLLVIAIIALLNQRQKSRRQNESLLQLTLEEPFTHHKGYAALLRDLGPNTPHTRTTALALIEFRDHLMTDLNHGQYFANAITCQLASHISNSLFMPVYVIRQGLFAVRFTETVDPQQALTQLQQQLDKNAFTAIFNLGFINLPLLTKTEINIAPKLLFETVQMALAGARSLPSNTCHYVSLRALDFVPPTLFADPLFLHLEKGIERGLIRVETNAMKEDIVWPCWENNQNRHLLGNI” the value was “failed”.
